The values that follow come from publication PMC8640019 (Nature Communications, 2021).

“And” between values parts separate entries of the source, which are not always exact repeats. Equal values may be shown once. Square brackets hold non-standard residues; d marks the D form. Ends that are not written are not given here. pY = N[C@@H](Cc1ccc(OP(=O)(O)O)cc1)C(=O)O

The target in one assay is F3 peptide. Briefly: NMR titration.
Assay [1] deals with T1, SOCS2-Elo B/C + F3 (human, UniProt O14508 32-198; Q15370 1-118; Q15369 17-112). Kind of assay: ITC.
Assay [2] concerns the target T1, SOCS2-Elo B/C + F3. Briefly: ITC. This is another data set of the same source.

T1 sequence (Q15370 whole entry, chain 2 of 2): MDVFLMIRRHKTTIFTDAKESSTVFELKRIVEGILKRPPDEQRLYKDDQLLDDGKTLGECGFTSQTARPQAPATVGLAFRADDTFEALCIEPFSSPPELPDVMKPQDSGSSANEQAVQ
T1 sequence (Q15369 17-112, chain 3 of 2): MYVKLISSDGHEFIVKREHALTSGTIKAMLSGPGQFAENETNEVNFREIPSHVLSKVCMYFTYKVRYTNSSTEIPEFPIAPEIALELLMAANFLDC

B1: SOCS2-SH2^32–159 (domain or fragment, human, UniProt O14508 32-159, looked up)
chain: QAARLAKALRELGQTGWYWGSMTVNEAKEKLKEAPEGTFLIRDSSHSDYLLTISVKTSAGPTNLRIEYQDGKFRLDSIICVKSKLKQFDSVVHLIDYYVQMCKDKRTGPEAPRNGTVHLYLTKPLYTS
On to B1, for which the binding result with F3 peptide was “binds”.

B2: Cullin5 N-terminal domain (Cul5^1-384) (domain or fragment)
chain: MATSNLLKNKGSLQFEDKWDFMRPIVLKLLRQESVTKQQWFDLFSDVHAVCLWDDKGPAKIHQALKEDILEFIKQAQARVLSHQDDTALLKAYIVEWRKFFTQCDILPKPFCQLEITLMGKQGSNKKSNVEDSIVRKLMLDTWNESIFSNIKNRLQDSAMKLVHAERLGEAFDSQLVIGVRESYVNLCSNPEDKLQIYRDNFEKAYLDSTERFYRTQAPSYLQQNGVQNYMKYADAKLKEEEKRALRYLETRRECNSVEALMECCVNALVTSFKETILAECQGMIKRNETEKLHLMFSLMDKVPNGIEPMLKDLEEHIISAGLADMVAAAETITTDSEKYVEQLLTLFNRFSKLVKEAFQDDPRFLTARDKAYKAVVNDATIFK
In the case of B2, in the assay with SOCS2-Elo B/C + F3 [1], the dissociation constant Kd is 41 nM. For the same molecule, in the assay with SOCS2-Elo B/C + F3 [2], the “stoichiometry N” value was 0.81.
Regarding STASTVQ[pY]STVVHSG [gp130 pY757 peptide], in the assay with SOCS2-Elo B/C + F3 [2], the “stoichiometry N” value was 0.738 and 0.632.
